Laboratory results: patent publication CN113621064A (FUZHOU MAIXIN BIOTECHNOLOGY DEV CO LTD, dated 2021)

Target: T1, CD117蛋白 (c-kit, 干细胞因子受体) (human, UniProt P10721 26-976)
T1 construct: whole, on cells; Endogenous antigen in tissue sections (immunohistochemistry); The abstract names it as human; also called 人CD117抗原
Assay: immunohistochemistry on a tissue array of 28 gastrointestinal stromal tumours

T1 sequence (P10721 26-976): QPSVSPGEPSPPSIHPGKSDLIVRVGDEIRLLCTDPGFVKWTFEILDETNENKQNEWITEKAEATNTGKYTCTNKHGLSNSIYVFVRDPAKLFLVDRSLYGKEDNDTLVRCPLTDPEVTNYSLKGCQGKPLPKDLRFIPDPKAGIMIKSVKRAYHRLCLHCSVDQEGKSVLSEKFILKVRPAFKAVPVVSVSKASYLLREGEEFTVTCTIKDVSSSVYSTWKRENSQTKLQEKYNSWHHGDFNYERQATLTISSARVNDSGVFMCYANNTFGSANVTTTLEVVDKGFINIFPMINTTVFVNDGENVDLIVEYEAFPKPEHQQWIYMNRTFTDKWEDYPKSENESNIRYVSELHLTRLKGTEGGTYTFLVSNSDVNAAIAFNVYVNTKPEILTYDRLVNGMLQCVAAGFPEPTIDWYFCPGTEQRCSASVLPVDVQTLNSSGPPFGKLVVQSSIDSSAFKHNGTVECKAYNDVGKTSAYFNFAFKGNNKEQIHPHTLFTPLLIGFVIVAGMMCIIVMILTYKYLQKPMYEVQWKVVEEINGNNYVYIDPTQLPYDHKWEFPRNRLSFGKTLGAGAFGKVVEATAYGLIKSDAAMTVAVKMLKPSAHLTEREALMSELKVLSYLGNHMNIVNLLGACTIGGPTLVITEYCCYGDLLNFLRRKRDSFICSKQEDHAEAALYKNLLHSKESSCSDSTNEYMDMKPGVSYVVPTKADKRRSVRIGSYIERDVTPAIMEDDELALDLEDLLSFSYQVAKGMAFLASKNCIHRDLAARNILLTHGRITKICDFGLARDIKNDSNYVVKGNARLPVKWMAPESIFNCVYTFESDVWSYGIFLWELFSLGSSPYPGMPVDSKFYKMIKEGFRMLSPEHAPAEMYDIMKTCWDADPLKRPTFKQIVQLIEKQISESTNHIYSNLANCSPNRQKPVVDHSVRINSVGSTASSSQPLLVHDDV

- binding result: binds
B1: 抗CD117蛋白单克隆抗体 (小鼠杂交瘤细胞株33G5分泌, CGMCC NO 21977) (antibody, V domains shown)
VH: EVKLQESGPSLVQPGGSMRLSCVASGFIFSNYWINWVRQSPEMGLEWIAQVKLKSDNYATHYAGSVKGRFTISRDDSKSSVYLQMNNLRPEDTGIYFCLGRLDVWGAGTTVTVSS
VL: DIMLTQSPLSLSVTIGQPASISCKSSQSLLYTDGKTYLNWLLQRPGQSPKLLIYLVSKLDSGVPDRFSGSGSGTDFTLKISRVEAEDLGVYYCLQATHFPQTFGGGTKLEIK
notes: also called CD117(33G5); 33G5分泌的CD117抗体
